Numbering of substitutions follows the chain as printed.
T1: Biotinylated TEM1-Fc (murine, UniProt Q9HCU0 18-687 (human entry), limits assumed, biotinylated (sites not given))
T1 construct: Ligand captured on the streptavidin sensor surface in the Biacore analysis; also called rTEM-1-Fc; not shown: Fc portion of a murine gamma heavy chain
T1 sequence (looked up): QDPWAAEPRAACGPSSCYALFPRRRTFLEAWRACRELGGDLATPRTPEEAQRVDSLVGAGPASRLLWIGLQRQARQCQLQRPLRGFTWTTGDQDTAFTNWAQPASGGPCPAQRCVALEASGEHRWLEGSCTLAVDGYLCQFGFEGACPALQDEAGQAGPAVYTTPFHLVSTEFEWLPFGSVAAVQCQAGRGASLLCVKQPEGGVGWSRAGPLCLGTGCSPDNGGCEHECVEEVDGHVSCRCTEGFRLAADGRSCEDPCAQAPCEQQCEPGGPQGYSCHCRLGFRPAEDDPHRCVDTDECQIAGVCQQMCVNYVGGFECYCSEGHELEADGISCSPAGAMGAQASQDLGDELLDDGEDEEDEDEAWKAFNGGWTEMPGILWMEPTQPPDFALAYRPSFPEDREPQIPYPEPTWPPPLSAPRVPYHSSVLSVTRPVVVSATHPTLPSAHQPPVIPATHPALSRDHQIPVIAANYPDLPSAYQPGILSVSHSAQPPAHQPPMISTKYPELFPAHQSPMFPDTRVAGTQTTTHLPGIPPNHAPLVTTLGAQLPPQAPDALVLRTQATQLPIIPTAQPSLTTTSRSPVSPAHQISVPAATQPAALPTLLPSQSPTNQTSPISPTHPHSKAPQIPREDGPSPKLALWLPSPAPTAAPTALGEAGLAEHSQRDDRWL

T2: TEM-1 in a native state on aortic smooth muscle cells (AoSMC) (UniProt Q9HCU0 18-757, limits assumed)
T2 construct: whole, on cells; also called tumor endothelial marker 1; endosialin
T2 sequence (looked up): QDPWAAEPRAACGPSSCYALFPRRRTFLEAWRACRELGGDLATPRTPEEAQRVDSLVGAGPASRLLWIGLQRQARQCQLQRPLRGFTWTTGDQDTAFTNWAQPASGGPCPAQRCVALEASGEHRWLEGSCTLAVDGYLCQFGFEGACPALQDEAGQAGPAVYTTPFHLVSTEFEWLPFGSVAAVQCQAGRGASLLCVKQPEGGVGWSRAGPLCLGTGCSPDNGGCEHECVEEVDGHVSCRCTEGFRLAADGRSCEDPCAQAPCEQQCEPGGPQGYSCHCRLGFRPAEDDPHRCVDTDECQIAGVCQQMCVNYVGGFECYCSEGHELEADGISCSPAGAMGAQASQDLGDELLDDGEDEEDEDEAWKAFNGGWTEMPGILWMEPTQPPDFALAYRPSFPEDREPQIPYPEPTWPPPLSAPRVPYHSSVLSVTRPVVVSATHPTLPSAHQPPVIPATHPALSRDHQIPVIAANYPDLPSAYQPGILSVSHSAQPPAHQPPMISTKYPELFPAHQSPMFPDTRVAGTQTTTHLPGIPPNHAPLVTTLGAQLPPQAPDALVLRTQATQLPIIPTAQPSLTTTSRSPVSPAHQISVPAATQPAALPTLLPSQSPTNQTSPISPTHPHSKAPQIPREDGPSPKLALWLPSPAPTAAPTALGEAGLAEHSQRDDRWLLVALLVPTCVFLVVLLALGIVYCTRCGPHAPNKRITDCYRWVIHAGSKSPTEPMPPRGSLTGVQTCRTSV

B1: Antibody 11D1 (antibody, V domains shown)
VH: EVQLVESDGGLVQPGRSLKLSCAASGFSFSDYYMAWVRQAPTKGLEWVATISYDGSGSYYRDSVKGRFTVSRDNAKTTLYLQMDSLRSEDTATYYCARGGGLDYWGQGVMVTVSS
VL: DNVLTQAPLAVSVTPGESASISCRSSKSLLSIEGINSLYWYLQKPGKSPQLLLFRMSNLASGVPDRFSGSGSETDFTLKISQVETEDVGVYYCAQFLEFPFTFGSGTKLEIK
notes: Rat monoclonal antibody from hybridoma, IgG2a/kappa; also called 11D1.G10.F8; ATCC PTA-12541
B2: Antibody 15D10 (antibody, V domains shown)
VH: QVQLMESGPGLVQPSETLSLTCTVSGFSLTNYNIHWVRQPPGKGLEWMGLMWSGGNTDYNSALKSRLTISRDTSKNQVFLKMNSLQSEDTTTYYCARDSGYGEGRLDYWGQGVMVTVSS
VL: DIVLTQAPLSVSVTPGESASISCRSSKSLLGSKGINFLYWYLQKPGKSPQLLIYRMSNLASGVPDRFSGSGSETDFILKISKVETEDVGVYYCAQFLEYPNSFGAGTKLELK
notes: Rat monoclonal antibody from hybridoma, IgG2a/kappa; also called 15D10.G4.C12; ATCC PTA-12543
B3: Antibody 7H12 (antibody, V domains shown)
VH: EVQLVESGGGLVQPGRSMILSCAASGFTFSNFDMAWVRQAPKMGLEWVATITYDGSRTNYRDSVKGRFTISRDSAKNTLYLQMDSLTSEDTATYYCARHGSSYYWFFDFWGPGTMVTVSS
VL: ETVMTQSPTSMPTSIGERVTLNCKASQSVGINVDWYQQTPGQSPKLLIYTASNRHTGVPDRFAGSGSGRDFTLTISNVEAEDLVVYYCLQYGSLPFTFGAGTKLELK
notes: Rat monoclonal antibody from hybridoma, IgG1/kappa; also called 7H12.H5.E7; ATCC PTA-12545
B4: Antibody 15F8 (antibody, V domains shown)
VH: EVQLVESGGGLVQPGRSMKLSCSASGFTFRNYYMAWVRQAPTRGLEWVASTGTGGDFTYYRDSVKGRFTISRDTAENTLYLQMDSLRSEDTATYYCARAYGYFDYWGQGVKVTVSS
VL: DIVLTQSPTTLSVTPGETVSLSCRASHSVGTNLHWYQQKPNESPRLLIKYVSQSNSGIPSRFSASGSGTDFTLNIKNVEFNDVSSYFCQQTQSWPLTFGAGTKLEIK
notes: Rat monoclonal antibody from hybridoma, IgG2a/kappa; also called 15F8.G6.B4; ATCC PTA-12540
B5: Antibody 16D2 (antibody, V domains shown)
VH: B4 VH with T28I, R43K, N77S, R87K
VL: B4 VL with P40T, N77D, N81D, A100S
notes: Rat monoclonal antibody from hybridoma, IgG2a/kappa; also called 16D2.H12.E7.G9; ATCC PTA-12544
B6: Antibody 9A5 (antibody, V domains shown)
VH: B4 VH with S23A, T53S, K111R
VL: B4 VL with P40T, Y50D, V51A, N55M, N81D, A100S
notes: Rat monoclonal antibody from hybridoma, IgG2a/kappa; also called 9A5.G12.B10.F8.F6; ATCC PTA-12542
B7: Antibody 7D3 (antibody, V domains shown)
VH: EVQLVESGGGLVQPKGSLKLSCAASGFDFKTYAMSWVRQAPGKGLDWIVTISTKGHNYATLYADSVKERFTISRDDSQSMVYLQMNNLKTEDTALYYCTVAGYNFDYWGQGVMVTVSS
VL: DVVLTQTPSILSATIGQSVSISCRSSQSLLDSDGNTYLYWFLQRPGQSPQRLIYLVSNLGSGVPNRFSGSGSGTDFTLKISGVEAGDLGVYYCMQATHAPFTFGSGTKLEIK
notes: Rat monoclonal antibody from hybridoma, IgG2a/kappa; also called 7D3.F5.E8.D8; ATCC PTA-12538
B8: Antibody 10H8 (antibody, V domains shown)
VH: QVQLKESGPGLVQPSQTLSLTCTVSGFSLTNYNIHWVRQPPGKGLEWMGAIWSGGSADYDSALKSRLSISRDTSKSQVFLKMDNLQTEDTAIYYCTRDQLGGWYFDFWGPGTKVTVSS
VL: DIVMTQTPSSQAVSAGEKVTMSCTSGQSLLYNENNKNYLAWYQLKPGQSPRLLIYWASTRESGVPDRFIGSGSGTYFTLTISSVQAEDLAVYYCQQYFRFPRTFGGGTKLELK
notes: Rat monoclonal antibody from hybridoma, IgG2a/kappa; also called 10H8.D7.E3; ATCC PTA-12546
B9: Antibody 14G3 (antibody, V domains shown)
VH: EVQLVEFGGGLVQPGRSLKLSCAASGFTFSDYNLAWVRQAPKKGLEWVATISYNGSEIYYRDSVKGRFTISRDNAKNTLYLQMDSLRSEDTATYYCARHWREYYSSYSSYVMDAWGQGASVTVSS
VL: DIVMTQTPSSQAVSAGAKVTLSCKSSQSLLYNKNKKNYLAWYQQKPGQSPKLLIYWASTRESGVPDRFIGSGSGTDFTLTISSVQAEDLAIYYCQQYYTFPTFGAGTKLELK
notes: Rat monoclonal antibody from hybridoma, IgG2a/kappa; also called 14G3.H4.F11.H7; ATCC PTA-12539
B10: Antibody 9G5 (antibody, V domains shown)
VH: EVKLEESGGGLVQPGMSVKLSCATSGFTFSDYWMEWVRQAPGKGLEWVAEIRNKLNNYVTNYGKPVRGRFTISRDDSKSIVYLQVNSIRSEDTGIYYCTRIQRVITTGEYFDYWGQGVMVTVSS
VL: DIQMTQSPSLLSASEGDRVTLSCKASQNIYKYLNWYQQKLGEAPKLLIYNINNLQTGIPSRFSGSGSGTDFTLTISSLQPEDVATYYCYQYNSGRAFGGGTKLELK
notes: Rat monoclonal antibody from hybridoma, IgG1/kappa; also called 9G5.F2.C1.F4; anti-TEM-1 clone 9G5

The binders below were run against T1, Biotinylated TEM1-Fc (assay: Biacore SPR, biotinylated TEM1-Fc on streptavidin surface, antibody as analyte, 1:1 model).
Protocol: Biacore analyses were also performed to determine the affinity of selected isolated TEM-1-specific rat antibodies. For these studies streptavidin-coated sensor surfaces were generated by injecting CAP reagent for 5 minutes at a flow rate of 2 μl/min. Biotinylated TEM1-Fc (10 μg/ml) was injected onto the streptavidin coated sensor surface for 20 sec (Fc2, RL=˜50 RU), 40 sec (Fc3, RL=˜100 RU), and 60 sec (Fc4, RL=˜150 RU) at a flow rate of 25 μl/minute. Rat anti-TEM-1 MAbs were injected for 300 seconds at 0.5 nM, 2 nM, 5 nM, 20 nM, and 50 nM concentrations and the dissociations were monitored for 30 minutes at a flow rate of 25 μl/minute. The sensor surface was regenerated by injecting a CAP kit regeneration solution for 120 sec at a flow rate of 25 μl/minute. The sensorgrams were analyzed using 1:1 binding model.
Work on B1 yielded a Kd of 240 pM, a koff of 9.57e-05 s⁻¹ and a kon of 400000 M⁻¹ s⁻¹. B2 was tested, and the Kd was 106 pM, the koff was 0.000105 s⁻¹ and the kon was 993000 M⁻¹ s⁻¹. Binder B3 has a Kd of 0.0279 pM, a koff of 3.01e-08 s⁻¹ and a kon of 1.08e+06 M⁻¹ s⁻¹. B4 gave a Kd of 0.222 pM, a koff of 1.65e-07 s⁻¹ and a kon of 742000 M⁻¹ s⁻¹. B5 was tested, and the Kd was 0.0131 pM, the koff was 1.07e-08 s⁻¹ and the kon was 810000 M⁻¹ s⁻¹. Work on B6 yielded a Kd of 21.6 pM, a koff of 1.84e-05 s⁻¹ and a kon of 850000 M⁻¹ s⁻¹. For B7, the Kd was 2.03 pM, the koff was 1.34e-07 s⁻¹ and the kon was 65900 M⁻¹ s⁻¹.

What follows are binders tested against T2, TEM-1 in a native state on aortic … (assay: flow cytometry on AoSMC, 10 µg/mL antibody, FITC goat anti-rat secondary; cells only 2.5, secondary only 3.5).
Protocol: FACS analyses were also performed using aortic smooth muscle cells (AoSMC) and HUVEC cells. Cells were harvested using cell dissociation buffer (Invitrogen, #13151-014), washed twice in PBS and re-suspended at 50,000 cells/100 μL FACS buffer (PBS+2% FBS) in a round bottom 96 well plate. Cells were incubated for 1 hour on ice with the described rat TEM-1-specific antibodies at a concentration of 10 μg/mL, washed and then incubated with FITC-conjugated goat-anti-rat secondary antibodies (dilution 1:100) (Southern Biotech). Prior to analysis, cells were labeled with 7-AAD (BD Biosciences) to allow for the exclusion of nonviable cells. Cells were analyzed on an EasyCyte Flow Cytometer (Guava Technologies). The data in Table 6 indicate that all of the tested antibodies bind TEM-1 in a native state.
In the case of B1, the “Geometric mean of resulting FACS plot” value is reported as 46.3. For B8, the “Geometric mean of resulting FACS plot” value was 52.7. For B2, the “Geometric mean of resulting FACS plot” value was 86.4. B9 was tested, and the “Geometric mean of resulting FACS plot” value was 94.2. In the case of B3, the “Geometric mean of resulting FACS plot” value is reported as 59.9. With B4 the “Geometric mean of resulting FACS plot” value was 72.5. In the case of B5, the “Geometric mean of resulting FACS plot” value is reported as 98. With B6 the “Geometric mean of resulting FACS plot” value was 89.9. In the case of B7, the “Geometric mean of resulting FACS plot” value is reported as 63.4. In the case of B10, the “Geometric mean of resulting FACS plot” value is reported as 57.4.
